Four molecules from US9969998B2, “Compositions of adenosine deaminase-2 (ADA2), variants thereof and methods of using same” (Halozyme, Inc., priority 2014, dated 2018) can be followed below.

What is called Km is the substrate concentration at which the rate is half of its maximum. For orientation: Vmax means the top rate of the reaction or transport when substrate is in excess. The term kcat denotes the number of substrate molecules converted per active site and unit of time at saturation.

Series [1] is described as follows: Heparin-affinity chromatography (heparin-Sepharose, SDS-PAGE). The class given is binding. Conditions: for Heparin Column Binding: compared to WT rHuADA2, 0.3 mg/mL protein. On the procedure: To assess binding of variants to heparin, heparin-affinity chromatography was employed to identify heparin-bound variants. Heparin binding was tested by mixing 35 μL of rHuADA2 WT and variants with 20 μL heparin-Sepharose™ resin (GE Healthcare, Pittsburgh, Pa.; Cat. No. 17-0998-01), followed by incubating at room temperature for 30 min. The mixture was then centrifuged through a 0.22 μm centrifuge filter and the flow-through, containing the unbound protein, was collected for analysis on an SDS-PAGE gel. 35 μL of 1.5 M NaCl was added to heparin-Sepharose resin and incubated at room temperature (RT) for 10 min to elute the remaining heparin-bound protein from the heparin-Sepharose. Samples of purified WT rHuADA2 and tested variants, before and after mixing with the heparin-Sepharose resin, were analyzed by SDS-PAGE to compare the degree of heparin binding.

A short description of series [2]: Adenosine deaminase (ADA) enzymatic activity assay kit. Type of series: biochemical. Conditions: for adenosine deaminase activity mU/mL / ΔA/min, adenosine deaminase activity: protein diluted to 5 μg/mL, serially diluted 2 fold (Table 21); for % activity vs. WT: relative to rHuADA2 WT (Table 21). On the procedure:
Adenosine deaminase activity was determined using an adenosine deaminase (ADA) assay kit (Genway, San Diego, Calif.; Cat. No. BQ014EALD) with minor modifications. The ADA assay is based on the enzymatic deamination of adenosine to inosine, which is converted to hypoxanthine by purine nucleoside phosphorylase (PNP). Hypoxanthine is then converted to uric acid and hydrogen peroxide by xanthine oxidase (XOD). Hydrogen peroxide is further reacted with N-Ethyl-N-(2-hydroxy-3-sulfopropyl)-3-methylaniline (EHSPT) and 4-aminoantipyrine (4-AA) in the presence of peroxidase (POD) to generate quinone dye, which is monitored in a kinetic manner.
Briefly, 5 μL samples in duplicates (at appropriate dilutions to measure steady-state, non-saturating enzyme activity) were added to 120 μL R1 reagent (provided by the manufacturer; 50 mM Tris HCL, pH 8.0, 2 mM 4-AA, 0.1 U/mL PNP, 0.2 U/mL XOD, 0.6 U/mL peroxidase) in a 96 well plate, according to manufacturer's instructions. The mixtures were incubated at 37° C. for approximately 5 min and 60 μL of R2 reagent (provided by the manufacturer; 50 mM Tris HCl, pH 4.0, 10 mM Adenosine, 2 mM EHSPT) was added to the mixtures. Then, change in absorbance (AA) at 556 nm over time at 37° C. was measured. One unit of ADA is the amount of ADA that generates one μmole of inosine from adenosine per minute at 37° C. Adenosine deaminase activity in mU/mL was calculated using the following formula: 1 mU/mL=(ΔA/min×Tv)/(Sv×ϵ×1) • where Tv=total volume (185 μL), Sv=sample volume (5 μL), ϵ=32.2×10^−3 μM^−1 cm^−1, 1=0.5 cm.
Adenosine deaminase activity of WT rHuADA2 and variants tested above were determined using the adenosine deaminase activity (ADA) assay described in Example 4. Activity was assessed on purified rHuADA2 WT and variants that were diluted to 5 μg/mL, and then serially diluted 2 fold to generate 4 measurements.
Adenosine deaminase activity of PEGylated rHuADA2 and variants was assessed using the method described in Example 4, and compared to the activity of the corresponding non-PEGylated form.
Selected candidate variants described in Table 8 above, containing an amino acid substitution in a residue that play a role in enzymatic activity, were assessed for their adenosine deaminase activity using the method described in Example 4. To perform the experiments, purified WT rHuADA2 and tested variants were prepared at 5 μg/mL concentration to normalize the amount of protein in each experiment.

The nature of series [3]: Kinetic assessment of adenosine deaminase activity (ammonia assay, Michaelis-Menten). Type of series: biochemical. The procedure: Adenosine deaminase activity was determined by the measurement of ammonia released from adenosine when broken down to inosine. Ammonia was measured using a commercially available Ammonia Assay kit (Cat. No. AA0100, Sigma-Aldrich, St. Louis, Mo.). The kit contains dry reagents containing α-ketoglutaric acid and NADPH, which were reconstituted with 5 mL water prior to use in the assay. Ammonia reacts with α-ketogluaric acid (KGA) and reduced nicotinamide adenine dinucleotide phosphate (NADPH) in the presence of L-glutamate dehydrogenase (GDH).
Kinetics parameters of rHuADA2 WT and variants were compared using this assay at different adenosine concentrations at pH 7.6 and 6.5. Adenosine concentrations ranging from 20 μM to 20 mM were used. Sub-molar concentration of adenosine stock was prepared in 1N NaOH.
For the enzymatic assays at pH 7.6, adenosine was serially diluted with 100 mM sodium acetate (NaOAc), pH 4.9. A 2× reaction mixture was prepared, containing reconstituted ammonia assay reagent (containing about 4 mM α-ketoglutarate and about 300 μM NADPH), WT rHuADA2 or variants at 1 μg/mL (17 nM) and glutamate dehydrogenase (GDH, 1:50 dilution). 85 μL of adenosine was added to 85 μL 2× mixture in duplicate in a UV-transparent half-area plate. The change in absorbance (ΔA) at 340 nm over time at room temperature was monitored.
For the enzymatic assay at pH 6.5, adenosine was serially diluted with 200 mM piperazine-N,N′-bis(2-ethanesulfonic acid) (PIPES), pH 6.5. A 2× reaction mixture in 200 mM PIPES, pH 6.5 was prepared, containing 4 mM α-ketoglutarate, 300 μM NADPH, 1 μg/mL (17 nM) rHuADA2 or variants and 50 U/mL GDH (Cat No. G2626, Sigma-Aldrich). The enzymatic reaction was initiated by adding equal volume of adenosine to the 2× mixture in a UV-transparent half-area plate as described above, and the change in absorbance (AA) at 340 nm over time at room temperature was monitored.
Adenosine deaminase activity in mU/mL (μM/min equivalent) was calculated using the following formula: 1 mU/mL=−(−ΔA/min×Tv)/(Sv×ϵ×1) • where Tv=total volume (170 μL), Sv=sample volume (85 μL), ϵ=6.22×10^−3 μM^−1 cm^−1, 1=1 cm.
The activity data were fitted with non-linear regression of Michaelis-Menten equation using Graphpad Prism software to obtain Km and Vmax. Other kinetics parameters such as kcat and kcat/Km were also determined.

B1: R23A: ADA2 variant SEQ ID NO:28 (protein)
chain: IDETRAHLLLKEKMMRLGGALVLNTKEELANERLMTLKIAEMKEAMRTLIFPPSMHFFQAKHLIERSQVFNILRMMPKGAALHLHDIGIVTMDWLVRNVTYRPHCHICFTPRGIMQFRFAHPTPRPSEKCSKWILLEDYRKRVQNVTEFDDSLLRNFTLVTQHPEVIYTNQNVVWSKFETIFFTISGLIHYAPVFRDYVFRSMQEFYEDNVLYMEIRARLLPVYELSGEHHDEEWSVKTYQEVAQKFVETHPEFIGIKIIYSDHRSKDVAVIAESIRMAMGLRIKFPTVVAGFDLVGHEDTGHSLHDYKEALMIPAKDGVKLPYFFHAGETDWQGTSIDRNILDALMLNTTRIGHGFALSKHPAVRTYSWKKDIPIEVCPISNQVLKLVSDLRNHPVATLMATGHPMVISSDDPAMFGAKGLSYDFYEVFMGIGGMKADLRTLKQLAMNSIKYSTLLESEKNTFMEIWKKRWDKFIADVATK
modifications: human ADA2 R20A, mature numbering
As for B1, in series [1], the “heparin binding compared to WT” value is “reduced heparin binding” and the “Heparin Column Binding” value is “Reduced”. Also, in series [2], the “enzymatic activity relative to WT rHuADA2” value is “reduced adenosine deaminase activity”; the “adenosine deaminase activity mU/mL” value was found to be 53.3 mU/mL; the “ΔA/min, adenosine deaminase activity” value is 23.2; the “% activity vs. WT” value was 68.4%.

B2: R23D: ADA2 variant SEQ ID NO:29 (protein)
chain: IDETRAHLLLKEKMMRLGGDLVLNTKEELANERLMTLKIAEMKEAMRTLIFPPSMHFFQAKHLIERSQVFNILRMMPKGAALHLHDIGIVTMDWLVRNVTYRPHCHICFTPRGIMQFRFAHPTPRPSEKCSKWILLEDYRKRVQNVTEFDDSLLRNFTLVTQHPEVIYTNQNVVWSKFETIFFTISGLIHYAPVFRDYVFRSMQEFYEDNVLYMEIRARLLPVYELSGEHHDEEWSVKTYQEVAQKFVETHPEFIGIKIIYSDHRSKDVAVIAESIRMAMGLRIKFPTVVAGFDLVGHEDTGHSLHDYKEALMIPAKDGVKLPYFFHAGETDWQGTSIDRNILDALMLNTTRIGHGFALSKHPAVRTYSWKKDIPIEVCPISNQVLKLVSDLRNHPVATLMATGHPMVISSDDPAMFGAKGLSYDFYEVFMGIGGMKADLRTLKQLAMNSIKYSTLLESEKNTFMEIWKKRWDKFIADVATK
modifications: human ADA2 R20D, mature numbering
In the case of B2, in series [1], the “heparin binding compared to WT” value is recorded as “reduced heparin binding” and the “Heparin Column Binding” value is listed as “Reduced”. For the same molecule, in series [2], the “enzymatic activity relative to WT rHuADA2” value is “reduced adenosine deaminase activity”; the “adenosine deaminase activity mU/mL” value amounted to 15.9 mU/mL; the “ΔA/min, adenosine deaminase activity” value was 6.9; the “% activity vs. WT” value is on record as 20.3%.

B3: R222Q: ADA2 variant SEQ ID NO:39 (protein)
chain: IDETRAHLLLKEKMMRLGGRLVLNTKEELANERLMTLKIAEMKEAMRTLIFPPSMHFFQAKHLIERSQVFNILRMMPKGAALHLHDIGIVTMDWLVRNVTYRPHCHICFTPRGIMQFRFAHPTPRPSEKCSKWILLEDYRKRVQNVTEFDDSLLRNFTLVTQHPEVIYTNQNVVWSKFETIFFTISGLIHYAPVFRDYVFRSMQEFYEDNVLYMEIRAQLLPVYELSGEHHDEEWSVKTYQEVAQKFVETHPEFIGIKIIYSDHRSKDVAVIAESIRMAMGLRIKFPTVVAGFDLVGHEDTGHSLHDYKEALMIPAKDGVKLPYFFHAGETDWQGTSIDRNILDALMLNTTRIGHGFALSKHPAVRTYSWKKDIPIEVCPISNQVLKLVSDLRNHPVATLMATGHPMVISSDDPAMFGAKGLSYDFYEVFMGIGGMKADLRTLKQLAMNSIKYSTLLESEKNTFMEIWKKRWDKFIADVATK
modifications: human ADA2 R219Q, mature numbering
For the molecule B3, the “Adenosine deaminase activity mU/ml” value in series [2] (purified protein at 5 μg/mL) worked out at 132.9 mU/ml. Moreover, in series [2] (purified protein at 5 μg/mL), the “Adenosine deaminase activity ΔA/min” value was 57.8 ΔA/min. Also, the “% of WT activity” value in series [2] (purified protein at 5 μg/mL, compared to WT-ADA2) is recorded as 170%. For the same molecule, the Km turned out to be 994 µM in series [3] (pH 6.5); 994 µM in series [3] (pH 6.5, [E] = 8.5 nM); 1920 µM in series [3] (pH 7.6); 1920 µM in series [3] (pH 7.6, [E] = 8.5 nM). The Vmax came out at 42.15 µM/min in series [3] (pH 6.5, [E] = 8.5 nM) and 59.28 µM/min in series [3] (pH 7.6, [E] = 8.5 nM). The kcat stood at 82.65 s⁻¹ in series [3] (pH 6.5, [E] = 8.5 nM, kcat=Vmax/0.0085/60) and 116.24 s⁻¹ in series [3] (pH 7.6, [E] = 8.5 nM, kcat=Vmax/0.0085/60).

B4: K374D/V102-Q147del→(GGGGS)2 (protein)
chain: IDETRAHLLLKEKMMRLGGRLVLNTKEELANERLMTLKIAEMKEAMRTLIFPPSMHFFQAKHLIERSQVFNILRMMPKGAALHLHDIGIVTMDWLVRNGGGGSGGGGSNVTEFDDSLLRNFTLVTQHPEVIYTNQNVVWSKFETIFFTISGLIHYAPVFRDYVFRSMQEFYEDNVLYMEIRARLLPVYELSGEHHDEEWSVKTYQEVAQKFVETHPEFIGIKIIYSDHRSKDVAVIAESIRMAMGLRIKFPTVVAGFDLVGHEDTGHSLHDYKEALMIPAKDGVKLPYFFHAGETDWQGTSIDRNILDALMLNTTRIGHGFALSKHPAVRTYSWDKDIPIEVCPISNQVLKLVSDLRNHPVATLMATGHPMVISSDDPAMFGAKGLSYDFYEVFMGIGGMKADLRTLKQLAMNSIKYSTLLESEKNTFMEIWKKRWDKFIADVATK
modifications: V102-Q147 replaced by (GGGGS)2; human ADA2 K371D/V99-Q144del->(GGGGS)2, mature numbering
Regarding B4, in series [3] (pH 7.6, [E] = 8.5 nM), the Km worked out at 870 µM, the Vmax was 44.52 µM/min and the kcat turned out to be 87.29 s⁻¹.
